According to paper doi:10.1101/369454:

What was measured:
[1] = molecular target: E74C V144C Ta16.9 (Ta_(CT-ACD)), reduced (wheat (Triticum aestivum)) (UniProt Q41560); assay: dynamic light scattering
[2] = molecular target: E74C V144C Ta16.9 (Ta_(CT-ACD)), reduced (wheat (Triticum aestivum)) (UniProt Q41560); assay: native MS
[3] = molecular target: E81C V151C Ps18.1 (Ps_(CT-ACD)), reduced (Pisum sativum) (UniProt P19243); assay: dynamic light scattering
[4] = molecular target: K49C W96C Ta16.9 (Ta_(dimer)), reduced (wheat (Triticum aestivum)) (UniProt Q41560); assay: dynamic light scattering
[5] = molecular target: K49C W96C Ta16.9 (Ta_(dimer)), oxidized: disulfide bonded at the dimeric interface (wheat (Triticum aestivum)) (UniProt Q41560); assay: SEC
[6] = molecular target: K49C W96C Ta16.9 (Ta_(dimer)), oxidized: disulfide bonded at the dimeric interface (wheat (Triticum aestivum)) (UniProt Q41560); assay: dynamic light scattering
[7] = molecular target: K49C W96C Ta16.9 (Ta_(dimer)), oxidized: disulfide bonded at the dimeric interface (wheat (Triticum aestivum)) (UniProt Q41560); assay: cross-linking
[8] = molecular target: Ps18.1, cytosolic class-I small heat-shock protein from Pisum sativum, wild type (Pisum sativum) (UniProt P19243); assay: dynamic light scattering
[9] = molecular target: Ps18.1, cytosolic class-I small heat-shock protein from Pisum sativum, wild type (Pisum sativum) (UniProt P19243); assay: SAXS

## E74C V144C Ta16.9 (Ta_(CT-ACD)), reduced (from UniProt Q41560 1-151) (natural protein)
[1]
  stoichiometry N: 12
[2]
  stoichiometry N: 12

## E81C V151C Ps18.1 (Ps_(CT-ACD)), reduced (from UniProt P19243 1-158) (natural protein)
[3]
  stoichiometry N: 12

## K49C W96C Ta16.9 (Ta_(dimer)), reduced (from UniProt Q41560 1-151) (natural protein)
[4]
  stoichiometry N: 12

## K49C W96C Ta16.9 (Ta_(dimer)), oxidized: disulfide bonded at the dimeric interface (from UniProt Q41560 1-151) (natural protein)
[5]
  stoichiometry N: 12
[6]
  stoichiometry N: 12
[7]
  size of the disulfide-linked covalent unit: 2 chains

## Ps18.1, cytosolic class-I small heat-shock protein from Pisum sativum, wild type (from UniProt P19243 1-158) (natural protein)
[8]
  stoichiometry N: 12
[9]
  stoichiometry N: 12
